Results reported in patent US20240209070A1 (LUNDQUIST INSTITUTE FOR BIOMEDICAL INNOVATION AT HARBOR …, published 2024).
Where two headings read alike, the source gives them in different places.

Tests used:
[1] = target: T1, recombinant CotH3 protein of Rhizopus delemar 99-880 (Flag-TEV-CotH3 made in S. cerevisiae) (Rhizopus delemar 99-880 (Rhizopus …, UniProt I1CFE1 18-579)); assay: BLI (Gator), antibody from culture medium on Protein G sensor
T1 construct: also called CotH3 antigen; rCotH3p
T1 sequence: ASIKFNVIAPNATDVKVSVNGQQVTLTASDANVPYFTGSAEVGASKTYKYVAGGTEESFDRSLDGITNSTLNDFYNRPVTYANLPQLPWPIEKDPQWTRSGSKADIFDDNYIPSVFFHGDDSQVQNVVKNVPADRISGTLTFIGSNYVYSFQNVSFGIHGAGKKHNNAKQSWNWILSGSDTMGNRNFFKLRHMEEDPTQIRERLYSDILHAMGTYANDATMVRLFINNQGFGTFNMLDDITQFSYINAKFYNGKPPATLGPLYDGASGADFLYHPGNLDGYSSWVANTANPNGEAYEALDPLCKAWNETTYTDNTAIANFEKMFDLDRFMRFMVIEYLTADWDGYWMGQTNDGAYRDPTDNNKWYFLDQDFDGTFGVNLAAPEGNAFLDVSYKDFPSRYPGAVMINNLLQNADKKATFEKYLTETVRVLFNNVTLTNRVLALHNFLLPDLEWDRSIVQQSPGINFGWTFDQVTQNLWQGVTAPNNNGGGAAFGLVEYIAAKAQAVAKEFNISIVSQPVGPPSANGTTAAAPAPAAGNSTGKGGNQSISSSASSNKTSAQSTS

Rhizomucor = target: T2, Rhizomucor (Rhizomucor (species not given)); assay: flow cytometry on fixed Rhizomucor spores, 20 ug/ml antibody; blank 'Hu 2nd Only' median 257.20, mean 272.52
T2 construct: native, on paraformaldehyde-fixed spores; also called cell-surface CotH antigen on Rhizomucor spores

Rhizopus delemar = target: T3, Rhizopus delemar (Rhizopus delemar); assay: flow cytometry on fixed Rhizopus delemar spores, 20 ug/ml antibody; blank 'Hu 2nd Only' median 565.83, mean 592.76
T3 construct: native, on paraformaldehyde-fixed spores; also called cell-surface CotH antigen on Rhizopus delemar spores

Mucor circinelloides = target: T4, Mucor circinelloides (Mucor circinelloides); assay: flow cytometry on fixed Mucor circinelloides spores, 20 ug/ml antibody; blank 'Hu 2nd Only' median 990.21, mean 1062.19
T4 construct: native, on paraformaldehyde-fixed spores; also called cell-surface CotH antigen on Mucor circinelloides spores

[2] = target: T5, Cunninghamella bertholletiae (Cunninghamella bertholletiae); assay: flow cytometry on fixed Cunninghamella bertholletiae spores, 20 ug/ml antibody; blank 'Hu 2nd Only' median 241.78, mean 250.81
T5 construct: native, on paraformaldehyde-fixed spores; also called cell-surface CotH antigen on Cunninghamella bertholletiae spores

[3] = target: T1, recombinant CotH3 protein of Rhizopus …
[4] = target: T1, recombinant CotH3 protein of Rhizopus …; assay: method and antigen form not stated
[5] = target: T1, recombinant CotH3 protein of Rhizopus …; assay: not stated (conclusions; reported affinity)
[6] = target: T1, recombinant CotH3 protein of Rhizopus …; assay: dose response of Fnorm [per mille] against ligand concentration [M], Kd model, On Time 20s, TargetConc 5nM, Unbound 829.3, Bound 803.3, amplitude 26.0, signal to noise 20.5; method and antigen not named in the filing's text
[7] = target: T1, recombinant CotH3 protein of Rhizopus …; assay: BLI (Gator), from the KD values of Table 5
Experimental: (§1) The purified preparations were then used to assess the affinity of each clone for the CotH3 antigen by biolayer interferometry using Gator system (ProbeLife). Under the assumption that the CotH3 antigen provided by Vitalex behaves as a normal soluble monomeric protein, a Protein G coated sensor probe (ProbeLife, catalog #160006) was loaded with the bivalent antibody test clone at a concentration of 5 μg/ml in ProbeLife's kinetic buffer (PBS pH 7.4, 0.02% BSA, 0.002% Tween-20, 0.005% NaN₃). […] All reactions were performed at 25° C. The values are chosen when three or more concentrations yield the same kinetic values.

[8] = target: T1, recombinant CotH3 protein of Rhizopus …; assay: BLI (Gator), antibody on Protein G sensor, CotH3 6.25-400 nM, 25 C
Experimental: as §1

B1: humanized variant LC2:HC1 (antibody, V domains shown)
VH: QVQLQESGPGLVKPSETLSLTCTVSGDSITSGYWSWIRQPPGKGLEWIGYIKYSGRTNYNPSLKSRVTISRDTSKNQFSLKLSSVTAADTAVYYCASRGYWGQGTLVTVSS
VL: DIVMTQTPLSLSVTPGQPASISCKSSQSLLDSDGKTFLNWLLQKPGQSPQLLIYLVSKLDSGVPDRFSGSGSGTDFTLKISRVEAEDVGVYYCWQGTHFPHTFGQGTKVEIKR
B1: no binding (tested: 30 nM CotH3) [1].

B2: humanized variant Grafted LC:HC1 (antibody, V domains shown)
VH: QVQLQESGPGLVKPSETLSLTCTVSGDSITSGYWSWIRQPPGKGLEWIGYIKYSGRTNYNPSLKSRVTISRDTSKNQFSLKLSSVTAADTAVYYCASRGYWGQGTLVTVSS
VL: DIVMTQTPLSLSVTPGQPASISCKSSQSLLDSDGKTFLYWYLQKPGQSPQLLIYLVSSRFSPDRFSGSGSGTDFTLKISRVEAEDVGVYYCWQGTHFPHTFGQGTKVEIKR
B2: no binding (tested: 30 nM CotH3) [1].

B3: humanized anti-CotH3 antibody LC3:HC3 (antibody, human IgG1, kappa)
heavy: not shown
light: DIVMTQTPLSLSVTPGQPASISCKSSQSLLDSDGKTFLNWLLQKPGQSPQRLIYLVSKLDSGVPDRFSGSGSGTDFTLKISRVEAEDVGVYYCWQGTHFPHTFGQGTKVEIKRTVAAPSVFIFPPSDEQLKSGTASVVCLLNNFYPREAKVQWKVDNALQSGNSQESVTEQDSKDSTYSLSSTLTLSKADYEKHKVYACEVTHQGLSSPVTKSFNRGEC
notes: also called VX01; L3:H3
For B3, the “Mean: FITC-A” value (Rhizomucor) was 19800, the “Median: FITC-A” value (Rhizomucor) was 19900 and the “Mean: FITC-A” value (Rhizopus delemar) was 18200. For the same binder, the “Median: FITC-A” value (Rhizopus delemar) was 17000, the “Mean: FITC-A” value (Mucor circinelloides) was 22500 and the “Median: FITC-A” value (Mucor circinelloides) was 18800. For the same binder, the “Mean: FITC-A” value [2] was 19300 and the “Median: FITC-A” value [2] was 18900.

B4: humanized variant LC3:HC1 (antibody, V domains shown)
VH: QVQLQESGPGLVKPSETLSLTCTVSGDSITSGYWSWIRQPPGKGLEWIGYIKYSGRTNYNPSLKSRVTISRDTSKNQFSLKLSSVTAADTAVYYCASRGYWGQGTLVTVSS
VL: DIVMTQTPLSLSVTPGQPASISCKSSQSLLDSDGKTFLNWLLQKPGQSPQRLIYLVSKLDSGVPDRFSGSGSGTDFTLKISRVEAEDVGVYYCWQGTHFPHTFGQGTKVEIKR
B4: no binding (tested: 30 nM CotH3) [1].

B5: humanized variant LC1:HC1 (antibody, V domains shown)
VH: QVQLQESGPGLVKPSETLSLTCTVSGDSITSGYWSWIRQPPGKGLEWIGYIKYSGRTNYNPSLKSRVTISRDTSKNQFSLKLSSVTAADTAVYYCASRGYWGQGTLVTVSS
VL: DIVMTQTPLSLSVTPGQPASISCKSSQSLLDSDGKTFLYWYLQKPGQSPQLLIYLVSKLDSGVPDRFSGSGSGTDFTLKISRVEAEDVGVYYCWQGTHFPHTFGQGTKVEIKR
B5: no binding (tested: 30 nM CotH3) [1].

B6: humanized variant LC3:Grafted HC (antibody, V domains shown)
VH: QVQLQESGPGLVKPSETLSLTCTVSGDSITSGYWSWIRQPPGKGLEWIGYIKYSGRTNYNPSLKSRVTISVDTSKNQFSLKLSSVTAADTAVYYCASRGYWGQGTLVTVSS
VL: DIVMTQTPLSLSVTPGQPASISCKSSQSLLDSDGKTFLNWLLQKPGQSPQRLIYLVSKLDSGVPDRFSGSGSGTDFTLKISRVEAEDVGVYYCWQGTHFPHTFGQGTKVEIKR
B6: no binding (tested: 30 nM CotH3) [1].

B7: humanized anti-CotH3 antibody LC2:HC3 (antibody, human IgG1, kappa, V domains shown)
VH: QVQLQESGPGLVKPSETLSLTCTVSGDSITSGYWNWIRQPPGKGLEHIGYIKYSGRTFYNPSLKSRVTISRDTSKNQFSLKLSSVTAADTAVYYCASRGYWGQGTLVTVSS
VL: DIVMTQTPLSLSVTPGQPASISCKSSQSLLDSDGKTFLNWLLQKPGQSPQLLIYLVSKLDSGVPDRFSGSGSGTDFTLKISRVEAEDVGVYYCWQGTHFPHTFGQGTKVEIKR
notes: also called L2:H3; IgG anti-CotH3-LC2HC3
B7 was tested, and the “Mean: FITC-A” value (Rhizomucor) was 29000, the “Median: FITC-A” value (Rhizomucor) was 29000 and the “Mean: FITC-A” value (Rhizopus delemar) was 28900. For the same binder, the “Median: FITC-A” value (Rhizopus delemar) was 27700, the “Mean: FITC-A” value (Mucor circinelloides) was 40600 and the “Median: FITC-A” value (Mucor circinelloides) was 36500. The “Mean: FITC-A” value [2] was 29800 and the “Median: FITC-A” value [2] was 29200.

B8: humanized variant LC1:HC2 (antibody, V domains shown)
VH: QVQLQESGPGLVKPSETLSLTCTVSGDSITSGYWSWIRQPPGKGLEHIGYIKYSGRTFYNPSLKSRVTISRDTSKNQFSLKLSSVTAADTAVYYCASRGYWGQGTLVTVSS
VL: DIVMTQTPLSLSVTPGQPASISCKSSQSLLDSDGKTFLYWYLQKPGQSPQLLIYLVSKLDSGVPDRFSGSGSGTDFTLKISRVEAEDVGVYYCWQGTHFPHTFGQGTKVEIKR
B8: no binding (tested: 30 nM CotH3) [1].

B9: humanized anti-CotH3 antibody LC3:HC2 (antibody, human IgG1, kappa, V domains shown)
VH: QVQLQESGPGLVKPSETLSLTCTVSGDSITSGYWSWIRQPPGKGLEHIGYIKYSGRTFYNPSLKSRVTISRDTSKNQFSLKLSSVTAADTAVYYCASRGYWGQGTLVTVSS
VL: DIVMTQTPLSLSVTPGQPASISCKSSQSLLDSDGKTFLNWLLQKPGQSPQRLIYLVSKLDSGVPDRFSGSGSGTDFTLKISRVEAEDVGVYYCWQGTHFPHTFGQGTKVEIKR
notes: also called L3:H2; IgG anti-CotH3-LC3HC2
With B9 the “Mean: FITC-A” value (Rhizomucor) was 35900, the “Median: FITC-A” value (Rhizomucor) was 35900 and the “Mean: FITC-A” value (Rhizopus delemar) was 21800. The “Median: FITC-A” value (Rhizopus delemar) was 20600, the “Mean: FITC-A” value (Mucor circinelloides) was 43200 and the “Median: FITC-A” value (Mucor circinelloides) was 37100. For the same binder, the “Mean: FITC-A” value [2] was 35600 and the “Median: FITC-A” value [2] was 34900.

B10: humanized variant LC2:Grafted HC (antibody, V domains shown)
VH: QVQLQESGPGLVKPSETLSLTCTVSGDSITSGYWSWIRQPPGKGLEWIGYIKYSGRTNYNPSLKSRVTISVDTSKNQFSLKLSSVTAADTAVYYCASRGYWGQGTLVTVSS
VL: DIVMTQTPLSLSVTPGQPASISCKSSQSLLDSDGKTFLNWLLQKPGQSPQLLIYLVSKLDSGVPDRFSGSGSGTDFTLKISRVEAEDVGVYYCWQGTHFPHTFGQGTKVEIKR
B10: no binding (tested: 30 nM CotH3) [1].

B11: humanized variant LC1:HC3 (antibody, V domains shown)
VH: QVQLQESGPGLVKPSETLSLTCTVSGDSITSGYWNWIRQPPGKGLEHIGYIKYSGRTFYNPSLKSRVTISRDTSKNQFSLKLSSVTAADTAVYYCASRGYWGQGTLVTVSS
VL: DIVMTQTPLSLSVTPGQPASISCKSSQSLLDSDGKTFLYWYLQKPGQSPQLLIYLVSKLDSGVPDRFSGSGSGTDFTLKISRVEAEDVGVYYCWQGTHFPHTFGQGTKVEIKR
B11: no binding (tested: 30 nM CotH3) [1].

B12: mouse anti-CotH3 monoclonal antibody clone C2 (antibody, V domains shown)
VH: DLQLQESGPSLVKPSQTLSLTCSVTGDSITSGYWNWIRKFPGNKLEHMGYIKYSGRTFYNPSLKSRVSITRDTSKNQYYLQLNSVTSEDTATYYCASRGYWGQGTTLTVSS
VL: DVVMTQTPLSLSVTIGQPASISCKSSQSLLYSNGKTYLNWLQQRPGQAPKLLMFQVSKPGIPDRFSGSGSETDFTLKISRVEAEDLGVYYCLQGTYFPHTFGAGTKVEIK
notes: also called 6E11A8 mAb; mAb
Binder B12 has a Kd [3] of 58.9 nM, a koff [3] of 0.00141 s⁻¹ and a kon [3] of 23900 M⁻¹ s⁻¹. For the same binder, the Kd [4] was roughly 40 nM, the Kd [5] was roughly 50 nM and the Kd [6] was 40.4 nM.

B13: C2 Chimera 2 (C2 VH on human IgG1 constant region with AvantGen cloned variable kappa on human kappa constant region) (antibody, V domains shown)
VH: DLQLQESGPSLVKPSQTLSLTCSVTGDSITSGYWNWIRKFPGNKLEHMGYIKYSGRTFYNPSLKSRVSITRDTSKNQYYLQLNSVTSEDTATYYCASRGYWGQGTTLTVSS
VL: DVVMTQTPLSLSVTIGQPASISCKSSQSLLYSNGKTYLNWLQQRPGQAPKLLMFQVSKPGIPDRFSGSGSETDFTLKISRVEAEDLGVYYCLQGTYFPHTFGAGTKVEIKR
notes: also called AvantGen LC-chimera
In the case of B13, the “fold improvement in affinity over the parental mouse mAb” value [7] is reported as 33 fold, the Kd [8] is reported as 1.8 nM and the koff [8] is reported as 0.00111 s⁻¹. It also gave a kon [8] of 627000 M⁻¹ s⁻¹.
